Reference: a protein production outcome set (Wang et al. 2014)

Assay: label from the status in PepcDB records

Row | Sequence | protein production
1 | TIDSNFQNKVDEILQRNYSQIVKTIGPYSENAYVVAMNPQTGAILAMSGFHHDLATGEVTPNPLAPILNSEVPGSVVKAGTLTAGYETGVIKGNDVLTDEAILLAGSNPKASWWNASGGTTMQLTAEQALEYSSNAYMMKLVFKMMGVNYYPNMIFPYEVGDDTVFKELRKAFAEYGMGTKTGIDIPGETTGIQNKDFKDSSSAPQGGNLLDLSFGQYDTYSALQLAQYVSTVANNGIRVQPHVVEGIYGNDENGALGKILKEIEPKVLNKVNISEDQIGILQQGFYNVVNGTSPFTTARGLKSDKFSIAAKTGTAETQATDANGVNHTTVNSNLVAYAPYENPEIAISVVLPHLNDEASKPNQTIAKEVLEAYMEMYKK | failed
2 | MSIKIGLLGFGTVASGIPFLLKENGEKVFAASRDQLEIAKVLVKDDEEKDRLIAAGNDYNFVTNVDEILNDEEIQIVVELMGRIEPARTFITKALEAGKNVVSANKDLIATHGKELIALAQDKGVAFYYEAAVAGGIPILRTLANSLTSDKVTRILGVLNGTSNFMMTKMVDEGWSYEDALKTAQELGYAESDPTNDVEGYDAAYKAVILSQFGFGATIDFDDVSHKGITNISTDDVAVAQELGYVIKLVGDVREVESGISAEVSPTFLPKNHPLASVNDVMNAVFVESIGIGESMYYGPGAGQKPTATSVLADIIRIARRLSDGNVGKPFNEFRRDLPLANPADVKSNYYFALDTPDEKGKILHLSEIFNSEDISFEQVLQQKANGTTARIVVITHAMSKTQLKAVTEKLEAAEDFTVVNTLKVLSNLEHHHHHH | not failed
3 | MCYASMEMSAPIRFGTEGFRGVIAREFTFATLHRLAEAYGRHLLERGGGLVVVGHDTRFLADAFARALSGHLAGMGLKVVLLKGPVPTPLLSFAVRHLKAAGGAMLTASHNPPQYLGVKFKDATGGPIAQEEAKAIEALVPEEARALEGAYETLDLREAYFEALKAHLDLKALSGFSGVLYHDSMGGAGAGFLKGFLRHVGLEIPVRPIREEPHPLFHGVNPEPIPKNLGVTLAVLGPETPPSFAVATDGDADRVGVVLPGGVFFNPHQVLTTLALYRFRKGHRGRAVKNFAVTWLLDRLGERLGFGVTTTPVGFKWIKEEFLKGDCFIGGEESGGVGYPEHLPERDGILTSLLLLESVAATGKDLAEQFKEVEALTGLTHAYDRLDLPLKAPLDLTPFREPRPLAGLTPKGVDTLDGVKWLYEEAWVLFRASGTEPVVRIYVEAQSPELVRALLEEARKLVEG | not failed
4 | SIRTKQSEAKSKGDTLRQLELAALMTHCNMLITHQQLALQAAMKLAYATKNYLYALAFAKRLLELAPNEEMERTAKKVMQFCERNPNNQNQLDYDIEQSNFAIDAGRLKPCIQPPTKSCVYCGACYDESWHSMTCVVCQVAQD | not failed
5 | MTEKKIDFKKEEKKFYAPKRKPERIFVPEMNFLMVDGKGDPDGEEYQKAVQSLYAIAYTIKMSKMGETRLDGYSDFVVPPLEGFWWSEGKFDLKDRDAWLWTSILRQPDFVTEEVLEWAKEVARKKKPDV | failed
6 | MDRYIDGFMKWMPESLFICFILTFLVVTMSVLMTDSPFIGTEKTGGIIYGWVNGFWGLLSFAMQMTILLATGNAVASSPPAHKMFKSLAKLPQTRTQIFIFSIVVGSIFGFLHWGLGMMVAIVFGKELLVQARQKGIKVHTPLFVATLFFTFLPATSGLSGAAVLYSATPDYLRNSVADAYKQVVPESVPLTESVLNLPFISLLVVCMLVPLCFALLAHPKDETKIMELDDEIYHHSLDTASHVVIARNTPAEKMNASRLVMYLVGGAIVSYSLYHFSVVGLSGLDLNCFNFLFLGLGLLLCGQQGPEYYGSLFKDGVMSSWGLVLQFPFYAGIFGIIQSTGLGLEISHFFVAISNGTTWPVFAYLYSALLNIAVPSGGSKFVIEAPYIVPATIEVGNDLGKILQAYQLGDATTNLIVPFWALSYLSNFKLKFNQIVAYTIPCVLVVTGIAIIYLFVF | failed
7 | KEMKQIQNEFKERMDEGELLNCMRCGFCLPSCPTYIESGFQETHSPRGRIALMKAVADGMIEPDEDVERSLSLCLGCRACEPVCPSGVKYGQLLEEARDIIHQNKKHSLGE | failed
8 | MEVISSFYLFLEILGTVAFAISGTVVGINHKLDIFGILVMSVITAVGGGIFRDLLLGATPPTALKSPFFIVISIIASIVAMLVALIIKSRREALSIFKAARFYNNLLLVSDAIGLGIFTVLGIDAGIAHGYSQNIFFIVFLGVLTGVGGGMIRDVIANQVPMIFRENIYALPCIIGGILYVYLQSVISHNLALFISVIFIVLIRIISEQRKLNLPRIEY | failed
9 | MGGKMRLLPIRKISRQSKRLALFLTFCAGYVDAYTFIVRGNTLVAGQTGNVVFLSVELIKNNVSDVRDKVLTLLAFMMGVFLLTIYKEKLRIVKKP | failed
10 | MSSDHRDQYYWRAKRDQFRSRAAYKLEFLIERYGIIKDGQAVLEIGSSPGGWTQVLVDHGCRVVAVDIQPMDEIPGVIFLKLNILREDAAERIREEMARSLVQRFDVVLSDAMAKTSGIRSSDHAASVMIGNAVMKIAMDTLRRGGVAVVKQFQGDMTGDFIKNWGHYFRDHRITKPPASRKESSEVYIIFYGFSGKETDNSVQG | failed
11 | QKQYWVCNSSDASISYTYCDKMQYPISINVNPCIELKGSKGLLHIFYIPRRDLKQLYFNLYITVNTMNLPKRKEVICRGSDDDYSFCRALKGETVNTTISFSFKGIKFSKGKYKCVVEAISGSPEEMLFCLEFVILHQPNSN | failed
12 | MSLDSKTAPAFSLPDLHGKTVSNADLQGKVTLINFWFPSCPGCVSEMPKIIKTANDYKNKNFQVLAVAQPIDPIESVRQYVKDYGLPFTVMYDADKAVGQAFGTQVYPTSVLIGKKGEILKTYVGEPDFGKLYQEIDTAWRNSDAEGHHHHHH | not failed
13 | MTSRPSSDQTWQPIDGRVALIAPASAIATDVLEATLRQLEVHGVDYHLGRHVEARYRYLAGTVEQRLEDLHNAFDMPDITAVWCLRGGYGCGQLLPGLDWGRLQAASPRPLIGFSDISVLLSAFHRHGLPAIHGPVATGLGLSPLSAPREQQERLASLASVSRLLAGIDHELPVQHLGGHKQRVEGALIGGNLTALACMAGTLGGLHAPAGSILVLEDVGEPYYRLERSLWQLLESIDARQLGAICLGSFTDCPRKEVAHSLERIFGEYAAAIEVPLYHHLPSGHGAQNRAWPYGKTAVLEGNRLRW | not failed
14 | MQAEGKRKKGDLLIILVVLIIGVGAAVPWLWNQLNPGGGNGEHERIAVITRDGKEVARINLDKVTEPQHFHYEGGIALTIVAENGKIRFLESQCPDQICVKTGSLSKPGDFAACLPAGTIVTIEGDEYE | failed
15 | TVAVSQIVEHPALDATRQGLLDGLKAKGYEEGKNLEFDYKTAQGNPAIAVQIARQYVGESPDVLVGIATPSAQALVSATRTIPVVFTAVTDPVGAKLVKSMKQPGKNVTGLSDLSPVAQHVELIQEILPQVKSIGVVFNPGEANAVTLVNLLKESAEAKGIKVVEATALKSADVQSATQAIAAKSDILYAPTDNTVASAIEGMIVAANQAKKPVFGGATSYVEKGAIAGLGFDYYQVGVQTADYVAAILDGQEPGKLDVKVATGSDLVINESAASKLGIQLPSSVVQRATSMQ | not failed
16 | MRELFKSVRGFFRLLRMIFPKRLKNAFLGLSELFYYASSLSFYTILSLSPILLFVFSLFVSHYLQAHSGEMEALIFPNAPKLIGAIKDFLENFKKTDMTLGTLEEVSIVVALVLFCENYRSIASKIFQAKPRDYAHFKGKEIFLFWGFGTTLVFLFALPLVVFFDIKIQVFFEDKNSNLLHVLRWIGTYAFFLILFTIPTNKVFKHYFWVFLWVFFTSVSWHVLKWAFTYYVLYNRTYHELYGSVSILWFLMSWVYVSWLVILIGMYGCKVCDAFDPKEVFKKFLGFFKKET | failed
17 | MFNIKENQTTVKKEILAGITTFFTMVYIVVVNPSILSGTGVPFDQVFTATIIAAVVGTLWMALAANFPIAIAPGMGLNVYFAVSVVGSSNGEISYQTAFSTVFAAGILFIILSLTPLRKQLIEAIPANLKYGITAGIGLFIAFVGLRGAGIITANEANLVGLGNLHSPGVILALIGLAFSVVLMVMNVSGALFFGMILTGLIAFFTGQLEFTKGIMSMPHLPEKLIVTNPFAAFGDVIHYGLYSVVFSFLLVTIFDTTGTMIGVAEQAGLMKNNKLPNARKALLADSTATTVGAMFGTSPTTAYIESSAGVAAGGRTGLTSLTVAVLFGAALFFSPLVSAVSGIAAITSPALIIVGSMMIGAVTNIRWKELDEAFPAFLVILTMPLTSSIATGISLGFIAYPIVKAAKGKWREIHPLVFVFAVLFFIHLFFLEGH | failed
18 | MQHESPIIRRKSTRIYVGDVPIGDGAPIAVQSMTNTRTTDVEATVAQIRALEKVGADIVRVSVPTMEAAEAFKLIKQQVSVPLVADIHFDYRIALKVAEYGVDCLRINPGNIGNEERIRSVVDCARDKNIPIRIGVNGGSLEKDLQMKYGEPTPEALVESAMRHVDHLDRLNFDQFKVSVKASDVFLAVDSYRLLAKKIDQPLHLGITEAGGARAGAVKSAVGLGMLLSEGIGDTLRISLAADPVEEIKVGFDILKSLRIRSRGINFIACPSCSRQEFDVIGTVNALEQRLEDIITPMDVSIIGCVVNGPGEAEVSHLGLAGSNKKSAFYEDGKRQKERFDNNDLVNQLEAKIRAKASMMDSENRIEIKVQD | failed
19 | MCTPAADTRRGSPALASTARRGLLPARRNGPSARRGEALRSSTGRFVCWCRRRTASVDPSGFMPASFSIAGRLVDLHARAIRPATVHVQDGVIARIEPAETVPERHLLPGFIDAHVHVESAMLPPSEFARAAVRHGTVGTVSDPHEIANVLGVEGVEYMIADGRPVPFHFAFGAPSCVPATPFETSGAELGPDAVSALLDRDDVPYLSEMMDYPGAIDGAPNVLAKIRAAQVRDKPVDGHAPGLRGDDVAQYAAAGIETDHECVSIEEAREKLEAGMKIAIREGSAAKNFDELIPLMDEAPDRLMFCSDDRHPDALAEGHIDTLVRRALNRGYDRFDVLRAACVHPVEHYGLDVGLLREGDPADFIVVDDLDALNVQETYVEGALVAEEGETHIEHVASDVVNRFDAEPVAPADFRVPAGGDRLRVITAVDNQLGTGEEVVTTPTDDGYAVADPDRDVLKLAVVNRYTEESTPAVAFVRGFGLDGGALASSVAHDSHNVVAVGARDDALARAVNAVVRAEGGISAAAEGTQVLPLPIAGLMSDEPYDVVARRYTRLTDYVRAELGSAMDAPFMTLSFLSLLVIPQLKLSDRGLFDGAAFEFVDRFVD | failed
20 | MDGTEIAVSPRSLHSELMCPICLDMLKNTMTTKECLHRFCSDCIVTALRSGNKECPTCRKKLVSKRSLRPDPNFDALISKIYPSREEYEAHQDRVLIRLSRLHNQQALSSSIEEGLRMQAMHRAQRVRRPIPGSDQTTTMSGGEGEPGEGEGDGEDVSSDSAPDSAPGPAPKRPRGGGAGGSSVGTGGGGTGGVGGGAGSEDSGDRGGTLGGGTLGPPSPPGAPSPPEPGGEIELVFRPHPLLVEKGEYCQTRYVKTTGNATVDHLSKYLALRIALERRQQQEAGEPGGPGGGASDTGGPDGCGGEGGGAGGGDGPEEPALPSLEGVSEKQYTIYIAPGGGAFTTLNGSLTLELVNEKFWKVSRPLELCYAPTKDPK | failed
21 | MISPERLRVYRFFASLTDEQLKDIALISEEKSFPTGSVIFKENSKADNLMLLLEGGVELFYSNGGAGSAANSTVCSVVPGAIFGVSSLIKPYHYTSSARATKPVRVVDINGARLREMSENNQALGQVLMNNVAAAVLARLH | not failed
